Assay results published in US20160053014A1.

Target: human CXCR5 (human) (UniProt P32302)
Assay: cell-based or functional assay

Sequence of human CXCR5 (human) (P32302 whole entry): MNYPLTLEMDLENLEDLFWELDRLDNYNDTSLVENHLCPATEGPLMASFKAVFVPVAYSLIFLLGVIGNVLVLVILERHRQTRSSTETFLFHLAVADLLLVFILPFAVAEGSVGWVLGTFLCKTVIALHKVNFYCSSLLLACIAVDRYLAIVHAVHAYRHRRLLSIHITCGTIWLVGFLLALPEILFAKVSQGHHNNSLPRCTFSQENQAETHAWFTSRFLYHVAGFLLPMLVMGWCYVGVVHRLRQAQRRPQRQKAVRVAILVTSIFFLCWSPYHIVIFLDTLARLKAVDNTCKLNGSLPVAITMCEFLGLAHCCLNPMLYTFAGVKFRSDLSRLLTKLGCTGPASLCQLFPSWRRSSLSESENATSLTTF

- IC50 [nM] of mAbs in chemotaxis assay using HS-Sultan cells (25 nM CXCL13): 4.7 nM
B1: SAR113244 (antibody, from another filing, V domains shown)
VH: QVQLKESGPGLVAPSESLSITCTVSGFSLIDYGVNWIRQPPGKGLEWLGVIWGDGTTYYNPSLKSRLSISKDNSKSQVFLKVTSLTTDDTAMYYCARIVYWGQGTLVTVSA
VL: DIVMTQAAPSVAVTPGASVSISCRSSKSLLHSSGKTYLYWFLQRPGQSPQLLIYRLSSLASGVPDRFSGSGSGTAFTLRISRVEAEDVGVYYCMQHLEYPYTFGGGTKLEIKR
